The experiment has as its target C3d (human), P01024. Nature of the experiment: SPR; homemade HJEM2 chip, 61 RU C3d amine-coupled; FH flowed (2 μM to 3.9 nM); Biacore T200, 25 °C, HBS-P pH 7.4; 1:1 steady-state model. The following applies: remark: other sources report otherwise. A general note: Surface plasmon resonance follows binding to a sensor surface in real time, without labels.

Chain of C3d (human), P01024 (P01024 1002-1303): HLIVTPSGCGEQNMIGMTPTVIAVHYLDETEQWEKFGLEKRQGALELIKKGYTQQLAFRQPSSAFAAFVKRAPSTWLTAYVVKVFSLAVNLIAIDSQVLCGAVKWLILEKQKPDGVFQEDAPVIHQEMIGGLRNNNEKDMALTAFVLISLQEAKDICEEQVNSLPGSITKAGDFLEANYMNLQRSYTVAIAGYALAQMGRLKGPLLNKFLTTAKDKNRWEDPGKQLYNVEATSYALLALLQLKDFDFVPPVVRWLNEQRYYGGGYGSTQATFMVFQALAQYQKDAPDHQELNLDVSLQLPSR

B1: factor H, P08603 19-1231 (natural protein)
chain: EDCNELPPRRNTEILTGSWSDQTYPEGTQAIYKCRPGYRSLGNVIMVCRKGEWVALNPLRKCQKRPCGHPGDTPFGTFTLTGGNVFEYGVKAVYTCNEGYQLLGEINYRECDTDGWTNDIPICEVVKCLPVTAPENGKIVSSAMEPDREYHFGQAVRFVCNSGYKIEGDEEMHCSDDGFWSKEKPKCVEISCKSPDVINGSPISQKIIYKENERFQYKCNMGYEYSERGDAVCTESGWRPLPSCEEKSCDNPYIPNGDYSPLRIKHRTGDEITYQCRNGFYPATRGNTAKCTSTGWIPAPRCTLKPCDYPDIKHGGLYHENMRRPYFPVAVGKYYSYYCDEHFETPSGSYWDHIHCTQDGWSPAVPCLRKCYFPYLENGYNQNYGRKFVQGKSIDVACHPGYALPKAQTTVTCMENGWSPTPRCIRVKTCSKSSIDIENGFISESQYTYALKEKAKYQCKLGYVTADGETSGSITCGKDGWSAQPTCIKSCDIPVFMNARTKNDFTWFKLNDTLDYECHDGYESNTGSTTGSIVCGYNGWSDLPICYERECELPKIDVHLVPDRKKDQYKVGEVLKFSCKPGFTIVGPNSVQCYHFGLSPDLPICKEQVQSCGPPPELLNGNVKEKTKEEYGHSEVVEYYCNPRFLMKGPNKIQCVDGEWTTLPVCIVEESTCGDIPELEHGWAQLSSPPYYYGDSVEFNCSESFTMIGHRSITCIHGVWTQLPQCVAIDKLKKCKSSNLIILEEHLKNKKEFDHNSNIRYRCRGKEGWIHTVCINGRWDPEVNCSMAQIQLCPPPPQIPNSHNMTTTLNYRDGEKVSVLCQENYLIQEGEEITCKDGRWQSIPLCVEKIPCSQPPQIEHGTINSSRSSQESYAHGTKLSYTCEGGFRISEENETTCYMGKWSSPPQCEGLPCKSPPEISHGVVAHMSDSYQYGEEVTYKCFEGFGIDGPAIAKCLGEKWSHPPSCIKTDCLSLPSFENAIPMGEKKDVYKAGEQVTYTCATYYKMDGASNVTCINSRWTGRPTCRDTSCVNPPTVQNAYIVSRQMSKYPSGERVRYQCRSPYEMFGDEEVMCLNGNWTEPPQCKDSTGKCGPPPPIDNGDITSFPLSVYAPASSVEYQCQNLYQLEGNKRITCRNGQWSEPPKCLHPCVISREIMENYNIALRWTAKQKLYSRTGESVEFVCKRGYRLSSRSHTLRTTCWDGKLEYPTCAKR
For the molecule B1, the Kd – broadly, the concentration at which binding is half-saturated – was 640 nM.

The values above are taken from publication PMC6937562.
